Assay results taken from a protein production outcome set (Wang et al. 2014).

Assay: label from the status in PepcDB records
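Note: failed if final PepcDB status was selected cloned or expressed and not failed if soluble or beyond.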

Sequence | protein production
MIALPAWLTDERLSEDIEPLLRQTDNESLERLAAEAQAVTLRRFGRVISLYTPLYLSNFCSSGCVYCGFASDRRSPRRKLDTDEIEKELLAMKALGVSDVLLLTGERTNSVGFDYLRRAVDIAARHMPRVAVEAFPMSVAEYRGLAECGCTGLTIYQETYDPDHYRELHRWGPKQDFLERLETPERAITGGIRSVGIGALLGLSEPVGEALAVLRHARYLCKTYWKAGVTVSFPRIRPQEGGFQPSFTVSDRFLARMIFAFRIGMPDVDLVLSTRESSNFRDGMAGLGITRMSIASRTTVGGYVEKETAGASQFEVSDNRSVEAFCAALRAKDLEPVFKNWDAAYNNPLPAEECT | failed
MIAMVNDGGLALDRPTAAAIVGLFAGSMYLMTVFGGWVADNWLGQARAIWYGSIIIALGHLSIALTSVFDQSFFYLGLVLIVLGTGLFKTCISVIVGTLYKANDARRDAGFSIFYMGINMGSFIAPLITGLLAKDHGWHLGFGIGGIGMLIALLIFRFMAMPQLQTFNELRQEANSCSKPVVENKNAPKIVFSFLFAVAVVIALTFLGIIHINPVAVATYLTVGISIGIIAYFAYLLLFLNLEQHEKFKIIICFVLLAASALFWSAFEQKPTTFTLFAQDYTDRIVFGFEIPTVWFESINALFIIIFAPVAAWLWAKLGKANKDPSYISKFIIALLFAAGGFLLMSLASHFAIHGGVVSPFWLVGTLFLLTIGELCLSPIGLSTMTKLAPDVIRSQIMGLWFTGTALGNLMAGLIGGQVSADGINHLPSLFMRCVLALVIGAIVLFLLKKPMNKLMDKSTNKVQPDLETI | failed
MIANNIIPIIFLLIIVYGMFKGRKVYEWFLEGAKEGLMVCVKIFPALLAMMIAIRIFKDANLLNYLNNLLEPIVSLIGLPKDIVPLVLIKPLSGSGALGVYTELINTLGPDTREGLISSVIMGGTETIFYTITVYFGAVGIKKIRHTFWAALMADITAIIMAVLVVSMFFGL | failed
MIARPMVPTADQLATDDLSLSDRSRFWLAALEASGQGVAIADATHPDLILTYVNSAFKKLTGYNAAEALGKSCRFLQGSDRAQPGITTLRQAIRNGQACEVVLRNYRKDGSLFWNQLTIAPITDGQGKVSHYVALQRDITAFKEQEQALQRQGIYDEHSGLPKRQLFLDRLNQALAWSQFSGVPGALLLIDLGLPAHLDGSPSLSPDAEENLEIIANRLQAYVRPHETLAHLNHHQFGLLLLDPDVQLRAEERAHGIQTLIRDRLAGFEGGAHIGIVPLTPETPATVLLQAAEAAAMTARSQQQGHLSLEASAIVAAPEQYSRDRDWQQAIAAGELTLALQPQMGLRNRQLRGFEVQLRWQHPQQGTLLASQLMEHLEQSQHRETVGRWFLDQAGQLLSQWRNSAQFSGLFALSLLPQQWKSPSFIHDLRSLLETYQIPPEQLELDLPAQSLAESAAESWDWVYAVRDLGIGIGLADFGSRSIGLYDLRNLPLTTLKLERRFVRGLPDDANDRAIVRGVVAMSQALKVRIVARGVDTVDQAKFLARAECDAMQGLAYSAPLTIEEALQVARSPQAPAW | failed
MICCLGPRGSYSEKAAVTFSKAINDSEIQFEDSIYNVFKAVETNPEFFGVVPSENSIGGSVSITQDLLLEFPVKILGEVDISINHCLLGYDIKKVTEVLAHPQALAQCGHYITKNNWNITPVDSNAKAAKIVSEEKDEKLAAICGVENAEIYGLNVLDEYIQDFKNNTTRFFLICNKNK | failed
MICCLNPDCLNPLNPDGKKSCQSCGTTLVPLLRNRFRVVRVLSDEGGFGRTYLSEDKDKLNEPCVIKQLAPKFQGTWSQKKAVELFAEEAKRLQELGEHPQIPTLMAYFEQDNCLYLVQQFINGQNLLKELQQRKNYRPGEIQAILLDLLPVLKFIHDRGVIHRDIKPENIIRCRTDGRLNLIDFGSSKQLTAKVQNFGTSIGSHGYSPLEQIRDGKAYAASDLFALGATCFHLITSVSPFQLWMEHGYSWVSNWRQYLHSPLTPELDFVLDKLLQKDLKHRYTSADEVIKDITPKQPLALPAAGQTSGKIPVPQTTYLSKLPKKYSLLRSVVLLSALVLLFGFSESWFSQYLQIYSSLSARLTQNKSGQVVLAQPQKTTLRTISLANTLPDDENAFVSLAISPNGQIIASCGSDRTIKIWQLATGEDISSLKGHSRKVNAVVFSPDGKTLVSGGDDNTIKIWNLKTGKVIRTITGHSDAVHTLAISPNGKTLVSGSDDNTVKVWNLNTGRLINTLTGHTFWVRSVAISPDGVNIASGSFDKTVKIWNLETGTLTHTLAGNGETVTSIAFNPDGNTLASASRDRTIKIWKVGAGTRVRTLKGSTETITSIAFSPDGNTLASASRDQTIKLWNLETGKEIRTLEGHENTVTTVAFTPDGANLVSGSGDNTMRIWRIGN | failed
MICKKLIQTILLGFAMCFYLLLGAGLNPTLAATLTQVESISQPRMQTLSEPRNLESGVDSFLTSIPAGYYTIATVEELKSLLKKSQPMLVDVREASEYRAGHIPNAINIPLRTLSQNLNQIPRTRPVVLYCSSGYRSAMGVMTLHLLGYENVQGFPPSFAGWKNAKEAMTYGRSKTIAS | failed
MICVYTEDRWADILAAVASVRAQSRPARETLLVVDHHQTLLERLSREYKEVPEVRVLANAGPRGLSAGRNTGIAASHGEIIAFLDDDAVAERDWLRHFAEGYEDPRVMAVGGRTMPIWASGRRPAWFPEEFDWVVGCTYKGLPPGRVRVRNVLGGNASFRRTAFDAAGGFATGIGRDGDKRPLGCEETELCIRLTRARPDAILLIDDRAVIHHRVPEPREHFAYFRTRTYAEGLSKALVARSVGAGKGLESERRYTTRVLPAGVARGLRDAALARPGGAGRAGAIVAGVLTAAGGYVLGSVRARRGGATFSVVEPPDSEGEAA | failed
MIDDLLNFFNSFNVVKNYKLINQLKNEVDTLKSRLDIPRELLDGFYADRNSREYREVYEKDAPLVTVCIGTYNRGKLLVERSVRSVLEQSYGNIELIVVGDCCTDDTPRLVQGITDPRFRFINLPERGNYPENPLHRWCVAGTVPFNYALSQARGDFITHLDDDDEFVPDRIEKLVKFIQREKADLVWHPFWYERSNGRWAMRKAQEFSGGKVTTSSIFYHRWFTAVPWDIEAYRYQEPGDWNRLRKIKYLGARVARYPEPLLRHYCERNQESLSSRTIQTRNTKLEHHHHHH | failed
MIDFTKSKQYTLSIRLSTDGFSFSIYNPINDNSQSLFEKEVDTSLSLTANLKNVFHESDFLSYSYKRVNIMIASKRFTMIPLELFEEEQAELLFYHNHQKRENEIVMYNILKKNNVVIIFGIDKSTYTFLNEQYPEARFYSQSTPLIEYFSIKSRLGNSKKMYASVRKDAIDIYCFERGQLLLANSFECMQTEDRIYYLLYVWKQLEFNQERDELHLTGTLSDKETLMNELKKFILQVFIMNPANNIDMQALLTCE | not failed
MIDILNLALPYFGLIFVGFACGRWKKLPEQGLVWMNFFLVFVSLPALFFRIMSKTPFEELNNLPFVLATTLATAIAFFLSGMLGRLIGKLSMREATMAALSGGYGNIGYMGPGLALAVLGTQAAAPTALIFCFDTIFLFSIVPLGMALTAADKRPLIPTIIAVLREILFHPLIVAAYCGAAAAAFHVELPVAVDKMLAFLQNAAAPVALFTLGVTVALRPFGRVPWEIPSLVAVKLLLHPVIVFCLVLAFGPFSPEWAATAVLMASLPPALNVFVIARQYNTWVEPASVAVLIGTFMSVVTLTTVMWLIRTGQIPFPA | failed
MIDILPLLDWHHFVYFAIPAVLLLIVSALFALYQRRVWAICIAIAAACVLMFFIGGMWHSLERPPLRTMGETRLWYSFFVIIAGLIIYIRWKYRWILSFATVLSTVFMIINIAKPDIHNKTLMPALESPFFVPHVISYIFAYAMLGAALLVGGYFLFCKRKHKEVNAKVMMHTTDNLVYTGFAFLMTGLLLGAIWAKLAWGTYWNWDPKETWAAITVFSYLLYIHHRLHRPRAFAHSLVLLIVSFLFLQICWYGVNYLPSAKDSSIHTYTR | failed
MIDKQSGIPIYIQIQSEIKKKMEDGVWKVGTSIPAERQLAEMFHVSRMTVRQAIQGLVDDNILQRRVGAGTFIAEKKLTERLEAVTSFTNLMLQEGKVPSTRIVSYGIRPASTQEQEALQLPENSNVMKIERIRYGDRVPILYEVAAIPEKIASLLTKEDIMDSLYKAIELKLGQPIGEAEQIMEASLVSEKIAPYLDVKLGSPVMKLRQITTLEDGRPFEFTRSQYVGSRFQFVARIKQ | failed
MIDLILAIIILVSALLGLLRGFVSIIISTSSWLLASWATFEFGNTASHWLASHGIPSTTEILCGYALVFIGTLMTVGAVGMLMHAGINAIRLNNIDRIFGFALGTFRGGFIACLLLLMIGYTPLAHEPVWRNSRLVPLLQPGVSWMRAKLPQRSSPLTPQRLPLTRPMINRMGSINISVSDDNQLISRVFPPLSSNEHDKSHYVPVQPIIYKPTTTY | failed
MIDPLASPGSAPLIVIAGPTASGKSALALRVARRFNGVVINADSMQVYRDLRILSARPSVEDEAAAPHALYGVLDGAEVCSVGRWLALADGAVAAARAAGRLPILCGGTGLYLKAALEGLASVPEVAPEVRAEARELLAALGPAALHAKLAELDRAMAERLRPSDAQRIARAYEVVRGTGRSLMDWWSDPVATPALPGRPLLLVIDPPRAAQRAACDARLLAMVAAGALDELALLLARRLDPALPVMRAVGVPELARTLRGEVGLAEAVERAQGATRRYAKRQGTWIRTQLRPDRVLSESLVTQLSESQLTDIDNFLYAFLLTGAS | failed
MIDRNIVNLRLFRIYSKRYLKFDFVAAIVVFLVAIPLCLGIALASGAPLFSGILSGIIGGIVVGIFSGSQVSVSGPAAGMAAVVLAAISQLGDFNTFLLALTIAGLLQMIIGALRAGFVADYVPSNVVQGLLCSIGILLIIKQLPLAFTLSSDFDELKTHLLETTEGFTVSPLLALSQHINEGALIITTLSLAILIYFDITKNKILKEIPAPILVVLAGILLNELFIWTNSSLAQNSPQLVNIPDTNGFFQFFSHLEYPDWSAWTNPKVYLYALVICIVASLETLLNLKASERLDKKRRHSPTNQELVAQGLGNITSGLVGGIPVTSVIVRTSINIHAGSKTKFSAVLHGFFILFAVMLIPGALNKIPLSSLAAILIYTGYKLNKPAIYINIFSQGSDRFIPFIVTVISIIAFNLLAGILIGLAISLFYILKSNSQARIDIIKEIYPNGSTYRLMLPQQMTFLNKAALVAELDTLPRRSQLIIDARHSQYIDKEILDLFNELKEELAGSKQISVNFTGFQEHYKIHNYIDFITVTTYDVQTNLTPAQVLNILLEGNQRFLSDNRIHRSNQIDIKYTAKTQHPIAVVLACIDSRVPVETIFDMSFGDLFCVRIAGNVINDDILASIEYACNVVGAKLIMVLGHTRCGAIQSACDGIEKGHITQLLSKIKPAVNAEKETTTERNGKNQTFVNHVTELNVANTLQNIYKKSDILRTMIDSNEIGMVGAIYDVSSGKVSCKTYTEELSTLDGDENKLLAQKFETILLEAKAS | failed
MIDSLLDEMTLEEQVSVLSGADFWTTVPVERLGIPKIKVTDGPNGARGGGSLVGGVKATCYPVAIALGATWNPALIEAMGVSLAGQVKSKGASVLLAPTVNIHRSGLNGRNFECYSEDPMLTAALAVAYIKGVQSQGVAATIKHFAGNESEIERQTMSSDIDERALREIYLLPFEQAVKKAGVMAVMSSYNRLNGTYTSEHNWLLTDVLREQWGFDGIVMSDWFGSHSTSESVNAGLDLEMPGPTRDRGEKLVQAVRDGTVRPETVREAAGRILTLLERVGAFSSAPDLSEHAEDLPADRALIRKIGAEGAVLLKNDNILPLEKASLKRVAVIGPNAAVARVMGGGSAQINAHYTISPLEGIRAALQGTADVQHSVACGNSRLVKLFSQPVTVEYFKGVNCQGTPVAAEAVQTGEFFWFELPSPDLSLTDFSVRFTGTFTPQEDGPHLLGMTNSGLAKLYVDGELVVDGYTDWKRGENFFGTANDEIRHSVEMKAGRSYAIKVEYLSPPPEEYGIHITAIRFGIERILGEDAMVEAVECAKGADVALLFVGREGQWDTEGLDLPDMRLPGRQEELIERVSAVNPNCIVVLQTGGPVEMPWLEKVKAVLQVWYPGQELGNAVADMLFGDQEPGGRLPQTFPKQLSDNSAITNDPSIYPGMDGHVRYEEGVFVGYRHHDSRTIEPLFPFGFGLNYTSFEWDEPKASASEMTASGVTVSVRVSNTGKRAGSDVVQLYVEAPVSGVERPLKELRAFAKIALEPGESGEVTLEINPRDLSYYDVDAAAFRAPAGDYRLLIGAHAQDIRSAITIVNPQEWLGAVGDRTI | failed
